Results published in patent US20130035471A1.

Assays:
biotinylated IgG [1] = experiment: BIAcore, biotinylated IgG immobilised, mutein injected
biotinylated IgG [2] = experiment: BIAcore; half-life calculated as 0.693/koff/60

2-aa-loop mutein (streptavidin, loop7-8 replaced by N G), sequence (P22629 other isoform, or with tags, fused parts or gaps mutant): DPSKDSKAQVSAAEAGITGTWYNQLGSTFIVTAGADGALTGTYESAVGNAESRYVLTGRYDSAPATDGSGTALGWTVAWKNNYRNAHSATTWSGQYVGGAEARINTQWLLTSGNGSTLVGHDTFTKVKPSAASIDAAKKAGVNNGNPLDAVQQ
6-aa-loop mutein (streptavidin, loop7-8 replaced by D S N G S G), sequence (P22629 other isoform, or with tags, fused parts or gaps mutant): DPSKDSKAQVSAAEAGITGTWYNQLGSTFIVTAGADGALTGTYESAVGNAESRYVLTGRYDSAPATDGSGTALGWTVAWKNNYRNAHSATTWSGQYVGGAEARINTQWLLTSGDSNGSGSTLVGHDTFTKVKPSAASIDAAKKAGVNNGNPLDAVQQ

Kd (biotinylated IgG [1]) [nM] | koff (biotinylated IgG [1]) [s⁻¹] | kon (biotinylated IgG [1]) [M⁻¹ s⁻¹] | t1/2 (biotinylated IgG [2]) [h] | Substance
1.12 | 7.02e-05 | 63000 | 2.75 | 2-aa-loop mutein (streptavidin, loop7-8 replaced by N G) (from UniProt P22629 25-183)
19 | 0.000428 | 22100 | 0.45 | 8-aa-loop-H127C mutein (streptavidin, loop7-8 replaced by D S S N G S D G, with H127C) (from UniProt P22629 25-183)
3.13 | 7.59e-05 | 24300 | 2.53 | 6-aa-loop mutein (streptavidin, loop7-8 replaced by D S N G S G) (from UniProt P22629 25-183)
8.1 | 0.0004 | 49600 | 0.482 | ΔW-HC mutein (streptavidin with Trp-120 deleted and H127C) (from UniProt P22629 25-183)
